The nature of this series: yeast display, Sf9 membrane polyspecificity reagent, FACS + sequencing; frameworks hold sequencing errors. In outline:
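After 36–48 hours of galactose induction, yeast (Saccharomyces cerevisiae BJ5465) displaying a synthetic nanobody library were stained at 4 °C for 1 hour with 10% biotinylated, detergent-solubilized Sf9 membrane reagent. Streptavidin microbeads enriched the stained cells before FACS sorting into low and high (top ~1%) gates on anti-HA and streptavidin fluorescence. Each clone's polyreactivity label reflects its gate of origin.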
Regarding “QVQLVESGVGLVQAGGSLRLIWAASGRTFYRNVMGWYRQAPGKERELVAAISWSGGRTYYADSVKGRFTISRDNAKNTVYLQMNSLKPEDTAVYYCAARYRTLDGEVDYWGQGTQVTVSS”, the “polyreactivity (PSR sort gate)” value is on record as “high polyreactivity”.

Turning to “QVQLVESGVGLVQAGGSLRLRCAASARIFGWYTMGWNRQSPGKERELVADINFGGSTYYADSVKGRFTISRDNAKNTVYLLMKSLKSEYTAVFYCNADYSVYIIADEYDYWGQGTQVTVSS”, the “polyreactivity (PSR sort gate)” value is reported as “low polyreactivity”.

As for “QVQLVESGVGLVQAGGSLRLRCAASGITFGTYPMGWYRQAPGKEREFVAGYYADSVKGRFTISRDNAKNTVYLQMNSLKPEDTAVYYCAADYLYHDDVDYWGQGTQVTVSS”, the “polyreactivity (PSR sort gate)” value is “low polyreactivity”.

Consider “QVQLVESGVGLVQAGGSLRLRCAASGSIFEGNGMGWYRQAPGKERELVASITRSGGSTYDADSVKGRFTISRDNAQNTVYVQMNSLKPEDTAVYYCAAKGTTYGLTIRWYPYLHGYNYWGQGTQVTVSS”, for which the “polyreactivity (PSR sort gate)” value was “low polyreactivity”.

“QVQLVESGVGLVQAGGSLRLSCAASGFTFRRYAMGWYRQAPGKERELVAAITSSGGNTYYADSVKGRFTISRDNAKNTVYLQMNSLKPEDTAVYYCAKRAFYSSSYDYWGQGTQVSVSS”: the “polyreactivity (PSR sort gate)” value is on record as “high polyreactivity”.

For the sequence “QVQLVESGVGLVQAGGSLRLSCAASGIIFPGYVMGWYRQAPGKERELVAAISSGGRTYYADSVKGRFTISRDNAKNTVSLQMNSLKPEDTAVYYCAAGGRARTYYYWGQGTQVTVSS”, the “polyreactivity (PSR sort gate)” value is reported as “high polyreactivity”.

As for “QVQLVESGVGLVQAGGSLRLSCAASGIIFRSYAMGWYRQAPGKERELVAAITSSGGRTYYADSVKGRFTISRDNAKNTVYLQMNSLKPEDTAVYYCAAKTYQQQIVRPMYYWGQGTQVTVSS”, the “polyreactivity (PSR sort gate)” value was “high polyreactivity”.

Regarding “QVQLVESGVGLVQAGGSLRLSCAASGITFDYYAMGLYRQAPGKERELVAAIRKSGGSTYYADSVKGRFTISRDNAKNTVYLQMNSLKPEDTAVYYCAAGVRSPFRGGYYWGQGTQVTVSS”, the “polyreactivity (PSR sort gate)” value is “high polyreactivity”.

For the sequence “QVQLVESGVGLVQAGGSLRLSCAASGITFPGYAMGWYRQAPGKERELVAVIRKSGTSTYYADSVKGRFTISRDNAKNTVYLQMNSLKPEDTAVYYCAAGGPSTLDDYWGQGTQVTVSS”, the “polyreactivity (PSR sort gate)” value is “low polyreactivity”.

For “QVQLVESGVGLVQAGGSLRLSCAASGLIFRPYTMGWDRQAPGKERELVATITGSGASTNYADSVKGRFTISRDNAKNTLYLQMNSLKPEDTAVYYCKGRSYSRMYYWGQGTQVTVSS”, the “polyreactivity (PSR sort gate)” value is recorded as “high polyreactivity”.

As to “QVQLVESGVGLVQAGGSLRLSCAASGRIFAYNAMGWYRQAPGKERELVAAISSSDDDTYYADSVKGRFTISRDNAKNTVYLQMNSLKPEDTAGYYCAAEWDTDRLWAGPRGSLYDYWGQGTQVTVSS”, the “polyreactivity (PSR sort gate)” value is on record as “high polyreactivity”.

Regarding “QVQLVESGVGLVQAGGSLRLSCAASGRIFAYYAMGWYRQAPGKERELVAAISSGGTTNYADSVKGRFTISRDNAKNTVYLQMNSLKPEDTAVYYCNADGWRRSRQYYYWGQGTQVTVSS”, the “polyreactivity (PSR sort gate)” value is “low polyreactivity”.

Take “QVQLVESGVGLVQAGGSLRLSCAASGRIFNRNAMGWYRQAPGKERELVAAISHSVGSTYADSVKGRFTLSRDNAKNTVYLQMNSLKPEDTAVYYCAAKYYFEWNSALDYWGQGTQVTVSS”: the “polyreactivity (PSR sort gate)” value is given as “low polyreactivity”.

“QVQLVESGVGLVQAGGSLRLSCAASGRIFRYYTMGRYRHAPGKERELVAAITKSGGRTYYADSVKGRFTISRDTANNTVYLQMNSLKPEDTAVYYCAARRLYWGQGTQVTVSS”: the “polyreactivity (PSR sort gate)” value is “high polyreactivity”.

Regarding “QVQLVESGVGLVQAGGSLRLSCAASGRIFSRYTMGWYRQAPGKERELVAAIRYSGGLTYYADSVKGRFTISRDNAKNTVYLQMNSLKPEDTAVYYCATQVYLGYDKLYGYWGQGTQVTVSS”, the “polyreactivity (PSR sort gate)” value was “high polyreactivity”.

On to “QVQLVESGVGLVQAGGSLRLSCAASGRIFTYYAMGWYRQAPGKERELVAVISSVGGTYYADSVKGRFTISRDNAKNTVYLQMNSLKPEDTAVYYCAVGKIWSRRSSTSRFGYWGQGTQVTVSS”, for which the “polyreactivity (PSR sort gate)” value was “high polyreactivity”.

In the case of “QVQLVESGVGLVQAGGSLRLSCAASGRSFGPYAMGWYSQAPGKERELVAAISSSGGSTYYADSVKGRFTISRDNAKNNVYLQMNSLKPEDTAVYYCATYFARGYNSWGQGTQVTVSS”, the “polyreactivity (PSR sort gate)” value is “high polyreactivity”.

On to “QVQLVESGVGLVQAGGSLRLSCAASGRTFGSNAMGWYRQAPGKERELVAAISRVGSTYYADSVKGRFTISRDNAKNTVYLQMNSLKPEDTAVYYCPYDYWGQGTQVTVSS”, for which the “polyreactivity (PSR sort gate)” value is listed as “low polyreactivity”.

Take “QVQLVESGVGLVQAGGSLRLSCAASGRTFNSYAMGWYRQAPGKERELVATISSRGGNTFYADSLKGRCTISRDNAKNTVYLQMNSLKPEDTAVYYCAARRGVRKYPSAGYEYWGQGTQVTVSS”: the “polyreactivity (PSR sort gate)” value is “high polyreactivity”.

In the case of “QVQLVESGVGLVQAGGSLRLSCAASGRTFSRNAMGWYRQSPGKERELVATISRGGGITFYADSVKGRFTISRDNAKNNVYLQMKSLKPEDTAVYYCNADVRYVGLRRIVDYWGLGTQVTVSS”, the “polyreactivity (PSR sort gate)” value is reported as “high polyreactivity”.

Turning to “QVQLVESGVGLVQAGGSLRLSCAASGRTFWSYAMGLYRQAPGKERELVAAISRGGSRTYYADSVKGRFTISRDNAKNTVYLQMNSLKPEDTAVYYCAADPTASGHFLGQVDYWGQGTQVTVSS”, the “polyreactivity (PSR sort gate)” value was “high polyreactivity”.

With “QVQLVESGVGLVQAGGSLRLSCAASGSIFDPYAMGWYRQPPGKERELVAAIPYSVGGTTYYADSVKGRFTISRDTAKNTVYLQMNSLKPEHTAVNYCAAEWWGNPFDYWGQGTQVTVST”, the “polyreactivity (PSR sort gate)” value is listed as “high polyreactivity”.

Take “QVQLVESGVGLVQAGGSLRLSCAASGSIFGLYAMGCYRQAPGKERELVAAISTSDTSTYYADSVKGRFTISRDNAKNTVYLQMTSLKQEDTAVYYCAADTYDNFDYSGQGTQVTVSS”: the “polyreactivity (PSR sort gate)” value was “low polyreactivity”.

Turning to “QVQLVESGVGLVQAGGSLRLSCAASGSPFRRNALGWYRQAPGKERELVAAITWRGTSTYYADSVKGRFTISRDNAKNTVYLQMNSLIPEDTAVYYFATSKSRLRYDYWGQGTQVTVSS”, the “polyreactivity (PSR sort gate)” value was “high polyreactivity”.

For “QVQLVESGVGLVQAGGSLRLSCAASGSTFRYNAMVWYRQAPGKERELVAAITGSGDRTFYADSVKGRFTISRDNAKNTVYLQMNSLKPVDTAVYYCAARSRYPFSYGYYYWGQGTQVSVSS”, the “polyreactivity (PSR sort gate)” value is “high polyreactivity”.

Take “QVQLVESGVGLVQAGGSLRLSCAASGSTFTYYAMGWYRQAPGKESELVAAITASGTSTYYPDSVKGRFTISRDYAKNTVYLQMNSLKPEDTAVYYCAATRFKWTRIYPYYTGQGYNYWGQGTQVTVSS”: the “polyreactivity (PSR sort gate)” value is “high polyreactivity”.

On to “QVQLVESGVGLVQAGGSLRLSCAASGSTFWAYAMGWYRQAPGKERELVAAITTGGGRTFYADSVKGRFTISRDNAKNTVYLQMNSLKPEETAVYYFAAVSQSYRMYYWGQGTQVTVSS”, for which the “polyreactivity (PSR sort gate)” value is listed as “low polyreactivity”.

In the case of “QVQLVESGVGLVQAGGSLRLSCAASGSTFWLYAMGWYRQAPGKERELVASISSRGGSTYYADSVKGRFTISRDNAKNTVYLQMNSLKPEDTAVYYCAAKDIRYDDDYWGQGTQVTVSS”, the “polyreactivity (PSR sort gate)” value is “low polyreactivity”.

For “QVQLVESGVGLVQAGGSLRLSCAASGSTFYQYAIGWYRQAPVKERELVAAISKSGGSTYYADSVKGRFTISRDNAKNTVYLQMNSLKPEDTAVYYCATRWIKGRKMDYWGHGTQVTVSS”, the “polyreactivity (PSR sort gate)” value is “high polyreactivity”.

Take “QVQLVESGVGLVQAGGSLRLSCAASGSTLPYYAMGWYRQAHGKERQMVAAITTSGGDTYSADSVKGRFTISRDNAKNTVYLQMNSLKPEDTAVYYCAISYSARSTVRKLFYFAYDYWGQGTQVTVSS”: the “polyreactivity (PSR sort gate)” value is “low polyreactivity”.

Take “QVQLVESGVGLVQAGGSLRLSCAASGTTFSQYAMGGYRQAPGKERELVAAIDWSGGSTYYADSVKGRFTISRDNAKNTVYLQMNSLKPVDTAVYYCNTLRFRSFYLYGYWGQGTQVTVSS”: the “polyreactivity (PSR sort gate)” value is on record as “high polyreactivity”.

For the sequence “QVQLVESGVGLVQAGGSLRLSCAATGFTFYWYTMGWYIQAPGKERELVAAISASGGRTYYADSVKGRFTISRDNAKNTVYLQMNSLKPEDTAVYYCAARFRTWGNREAGYYWGQGTQVTVSS”, the “polyreactivity (PSR sort gate)” value is listed as “high polyreactivity”.

As to “QVQLVESGVGLVQAGGSLRLSCAATGSILSINGMGWYIPAPGKERELVATIDGSDGSTFYADSVKGRFTISRDNAKNTVFLQMNSLNPEDTEVYYCADENFWQTKEYDYWGQGTQVTVSS”, the “polyreactivity (PSR sort gate)” value is listed as “low polyreactivity”.

Take “QVQLVESGVGLVQAGGSLRLSCASSGFIFDTYAMGLYRQAPGKERELVAVISSGGSTYYADSVKGRFTISRDNAKNTVYLQMNSLKPEDTAVYYCAADSGYLGIYGDEYSWGQGTQVTVSS”: the “polyreactivity (PSR sort gate)” value is on record as “low polyreactivity”.

As for “QVQLVESGVGLVQAGRSLRLSCAASGFTFGAYAMGWYRQAPGKERELVAAITRRGGSTYYADSVKGRFTISRDNAKNTVYLQMNSLKPEDTAVYYCAARRGRVLTKVSGYYSWGQGTQVTVSS”, the “polyreactivity (PSR sort gate)” value was “high polyreactivity”.

As for “QVQLVESGVGLVQAGRSLRLSCAATGIIFRDNARGSNRQAPGKERELVAANSKSGGRTYYADSVKGRFTISRDNAKNTVYLQMNSLKPDDTAVYYCAKASRYWSLYYWGQGTQVTVSS”, the “polyreactivity (PSR sort gate)” value was “high polyreactivity”.

For “QVQLVESGVGLVQARGSLPLSCAASGFIFNTMGWYRQAPGKERELVATISWSDGSTYYADSVKGRFTISRDNAKNTVYLQMNTLKPEDTAVYYCAATTDALVGRPRYDYWGQGTQVTVSS”, the “polyreactivity (PSR sort gate)” value is listed as “low polyreactivity”.

For “QVQLVESGVGLVQAVVSLRISCAASGSNFNYYAMGWYRQAPGKERELVAAISGSGATTYYADSVKGRFTISRDNAKNTVYLQMNSLKPEDTAVYYCATTRRWYIGYDYWGQGTQVTVSS”, the “polyreactivity (PSR sort gate)” value is “high polyreactivity”.

Regarding “QVQLVESGVGLVQGGGSLRLTCAASGYTFPRYTKGWYRQPPGKERELVASINWSGGSTYYADSVKGRFTISRDNAKNNVYLQMNCLKPDDTAVYFCNKAYVSRYDYWGQGSQVTVSS”, the “polyreactivity (PSR sort gate)” value was “high polyreactivity”.

For “QVQLVESLGGLVQAGGSLRLSCAASGITFGWYAMGWYRQAPGQERELVAAISPAGSTYYADSVKGRFTISRDNAKNTVYLQMNSLKPEDTAVYYWRYSAFRFSAMGYWGHGTQVTVSS”, the “polyreactivity (PSR sort gate)” value is on record as “high polyreactivity”.

With “QVQLVESLVGLDQAGGSLRLSCSASGFTIPRYAMGWSRQAHGKESELVAAITSGGSTYYADSVKGRFTISRDNAKNNVYLQMNSLKTEVTAVYFCAADGLCGSRFYSWGLGTQVTVSS”, the “polyreactivity (PSR sort gate)” value is listed as “high polyreactivity”.

Values taken from the nanobody polyreactivity screen of Harvey et al. (2022).
